Blank lines part the entries; values can stand above or below the binder they belong to.
Columns and labels:
[1] = target: T1, recombinant soluble human HLA-G β2M MHC class I complex, trimer (human); assay: blocking ELISA, Fc tagged ILT2 coated, 100 nM antibody, soluble HLA-G trimer
T1 construct: also called HLA-G Trimer; fraction A8
Procedure: (§1) The ELISA was set up by coating the Fc tagged ILT2 and ILT4 respectively to Maxisorp microtiter plates. After incubation and washing steps, the respective antibodies were added at a concentration of 100nM. Soluble His tagged monomeric, dimeric or trimeric HLA-G was added to the wells. After incubation and washing steps, detection of bound receptor was carried out by anti-His-antibody-POD conjugates.

[2] = target: T2, recombinant soluble human HLA-G β2M MHC class I complex, monomer (human); assay: blocking ELISA, Fc tagged ILT2 coated, 100 nM antibody, soluble HLA-G monomer
T2 construct: His tagged; also called HLA-G-0003
Procedure: as §1

[3] = target: T3, human HLA-G expressed on cells (JEG3 naturally; SKOV3 HLA-G+ and PA-TU-8902 HLA-G+ transfectants) (human, UniProt P17693 25-338); assay: flow cytometry, JEG3 cells pre-incubated with antibody, competitor ILT2-Fc chimera
T3 construct: whole, on cells; also called cell surface HLA-G; HLA-G on JEG3 cells
Procedure: For analysis, JEG3 cells (ATCC HTB36) were stained with ILT2-Fc fusion proteins (control=no inhibition) with or without pre-incubation with different anti-HLA-G antibodies. For the pre-incubation with anti-HLA-G antibodies 25 μl/well of the cell suspension was transferred into a polypropylene 96-Well V-bottom plate and prechilled in the at 4° C. for 10 min. Anti HLA-G antibodies or reference antibodies (G233, MEM-G/9 or 87G) were diluted in staining buffer to a 2-fold concentration of 20 μg/ml and 25 μl/well of the antibody solution was added to the prepared cells and incubated for 1 h at 5° C. Cells were washed twice with 200 μl/well staining buffer with centrifugation at 300 g for 3 min and finally resuspended in 25 μl/well staining buffer.
The detection of human ILT2-Fc Chimera protein (RD #2017-T2-050) to a) JEG3 cells pre-incubated anti HLA-G mAb or b) untreated JEG3 cells as reference was determined as follows: Briefly, the ILT2-Fc or control human IgG (Jackson-Immuno-Research #009-000-003) were diluted in staining buffer to a 2-fold concentration of 20 μg/ml (ILT2) and 25 μl/well of the ILT2-Fc protein solution was added to the prepared cells and incubated for 2 h at 5° C. Cells were again washed twice with 200 μl/well staining buffer the human ILT2-Fcprotein was detected with fluorescent labeled anti human IgG Fc-gamma specific antibody (F(ab′)₂ Fragment Goat Anti-Human IgG, Fcy fragment specific-FITC, Jackson-Immuno-Research #109-096-008) at a dilution of 10 μg/ml in staining buffer. Cell pellets were resuspended in 50 μl/well detection antibody. After a 1-hour incubation at 5° C. cells were washed twice with staining buffer, resuspended in 70 μl and measured at a FACS Canto II to determine ILT2 binding to JEG 3 cells.

[4] = target: T4, recombinant soluble human HLA-G β2M MHC class I complex, dimer (human); assay: competition ELISA, immobilised HLA-G dimer, antibody titrated, competitor c-myc ILT4
T4 construct: also called HLA-G Dimer; fraction A9
Procedure: (§2) The ELISA was set up by coating the biotinylated antigen wt HLA-G to strepdavidin plates. After incubation and washing steps, the respective antibodies were bound in a concentration range from 8-0 μg in 1:3 dilution steps. C-myc tagged ILT-2 or -4 receptor was added to the HLA-G-antibody complexes. After incubation and washing steps, detection of bound receptor was carried out by anti-cmyc-antibody-POD conjugates. IC50 values were determined from the resulting inhibition curves at the antibody concentrations generating the half-maximal inhibition. In case of the non-biotinylated HLA-G dimer and trimer antigens, immobilization was carried out by random coating on assay plates.

[5] = target: T1, recombinant soluble human HLA-G β2M MHC …; assay: competition ELISA, immobilised HLA-G trimer, antibody titrated, competitor c-myc ILT2
Procedure: as §2

[6] = target: T1, recombinant soluble human HLA-G β2M MHC …; assay: competition ELISA, immobilised HLA-G trimer, antibody titrated, competitor c-myc ILT4
Procedure: as §2

[7] = target: T2, recombinant soluble human HLA-G β2M MHC …; assay: SPR (Biacore T200), antibody captured via anti-Fc, HLA-G complex injected, 25 C, 1:1 fit
Procedure: (§3) Binding kinetics of anti-HLA-G antibodies to human HLA-G, human HLA-G degrafted and human HLA-A2 were investigated by surface plasmon resonance using a BIACORE T200 instrument (GE Healthcare). All experiments were performed at 25° C. using PBS Buffer (pH 7.4+0.05% Tween20) as running buffer and PBS Buffer (+0.1% BSA) as dilution buffer. Anti-human Fc (JIR009-005-098, Jackson) or anti-rat Fc (JIR112-005-071, Jackson) or anti-Mouse Fc (JIR115-005-071, Jackson) antibodies were immobilized on a Series S CM5 Sensor Chip (GE Healthcare) at pH 5.0 by using an amine coupling kit supplied by GE Healthcare. Anti-HLA-G antibodies were captured on the surface leading to a capturing response of 50-200 RU. HLA-G molecules were injected for 180 s at 30 μl/min with concentrations from 2.5 up to 800 nM (2×1:2 and 4×1:3 dilution series) onto the surface (association phase). The dissociation phase was monitored for 300-600 sec by washing with running buffer. […] Bulk refractive index differences were corrected by subtracting the response obtained from a mock surface. Blank injections were subtracted (double referencing). The derived curves were fitted to a 1:1 Langmuir binding model using the BIAevaluation software.
(§4) The above table summarizes the antibody affinities and t1/2 values against wt and degrafted HLA-G as assessed by Surface plasmon resonance (Biacore) analysis. Binding kinetics of anti-HLA-G antibodies to human HLA-G, human HLA-G degrafted and human HLA-A2 were investigated by surface plasmon resonance using a BIACORE T200 instrument (GE Healthcare). All experiments were performed at 25° C. using PBS Buffer (pH 7.4+0.05% Tween20) as running buffer and PBS Buffer (+0.1% BSA) as dilution buffer. Anti-human Fc (JIR009-005-098, Jackson) or anti-rat Fc (JIR112-005-071, Jackson) or anti-Mouse Fc (JIR115-005-071, Jackson) antibodies were immobilized on a Series S CM5 Sensor Chip (GE

[8] = target: T5, modified human HLA-G β2M MHC class I complex (HLA-G specific amino acids replaced by HLA-A consensus amino … (human)); assay: SPR (Biacore T200), antibody captured via anti-Fc, degrafted HLA-G complex injected, 25 C, 1:1 fit
T5 construct: also called degrafted HLA-G
Procedure: as §3, §4

% inh. ILT2 [1]: 93%
% inh. ILT2 [2]: 75%
Inhibition of ILT2 binding to Jeg3 cells [3]: -9.3%
IC50 [4]: 0.0313 µM
IC50 [5]: 0.0005 µM
IC50 [6]: 0.0615 µM
Kd [7]: 0.0315 µM
koff [7]: 0.00165 s⁻¹
kon [7]: 52300 M⁻¹ s⁻¹
t ½ [7]: 7 min
Kd [8]: 0.00362 µM
koff [8]: 0.0345 s⁻¹
kon [8]: 9.54e+06 M⁻¹ s⁻¹
t ½ [8]: 0.3 min
B1: HLA-G-0033 (antibody, V domains shown)
VH: EVQLVETGGGLVQSGRSLKLSCVASGFTFNDYWMTWTRQAPGKGLEWVASITNSGGRTYYLDSVRGRFTISRDDAQNTLYLQMNSLRSEDTATYYCTKERIYLTAYWFFDFWGPGTMVTVSS
VL: DTILTQSPALAVSPGERVTISCRASESVSTLIHWYQQKPGQRPKLLIYLASHLESGVPARFSGSGSGTDFTLTIDPVEADDTATYYCQQSWNEPRTFGGGTKLELK

% inh. ILT2 [1]: 93%
% inh. ILT2 [2]: 75%
Inhibition of ILT2 binding to Jeg3 cells [3]: 98.1%
IC50 [4]: 0.0503 µM
IC50 [5]: 0.0004 µM
IC50 [6]: 0.0713 µM
Kd [7]: 0.0149 µM
koff [7]: 0.00076 s⁻¹
kon [7]: 51200 M⁻¹ s⁻¹
t ½ [7]: 15 min
B2: HLA-G-0032 (antibody, V domains shown)
VH: QVQLQQSGAELVKPGSSVKISCKASGYSFPSYDMHWIKQQPGNGLEWIGWIYPGNGNTKYNQKFNGKASLTADKSSSTAYMQLSSLTSEDSAVYFCAKPTVATRYNWFAYWGQGTLVTVSS
VL: QIVLTQSPALMSASPGEKVTMTCSASSSVNYMHWYQQKPRSSPKPWIYLTSNLASGVPARFSGSGSGTSYSLTISTMEAEDAATYYCQQWSSNLPITFGSGTKLEIK

% inh. ILT2 [1]: 93%
% inh. ILT2 [2]: 73%
Inhibition of ILT2 binding to Jeg3 cells [3]: 96.5%
IC50 [5]: 0.0001 µM
IC50 [6]: > 0.2 µM
Kd [7]: 0.00675 µM
koff [7]: 0.000882 s⁻¹
kon [7]: 131000 M⁻¹ s⁻¹
t ½ [7]: 13 min
Kd [8]: 2.12 µM
koff [8]: 0.116 s⁻¹
kon [8]: 54700 M⁻¹ s⁻¹
t ½ [8]: 0.1 min
B3: HLA-G-0037 (antibody, V domains shown)
VH: QVQLKESGPGLVQPSQTLSLTCSVSGFSLTTYSVSWVRQPPGKGLEWIGAIWSGGSTDYNSALKSRLRISRDTSKSQVLLKMNSLQTEDRAMYFCVRMNNKFGYWYFDLWGPGTMVTVSS
VL: DTVLTQSPTLAVSPGEKITISCRASETVSTMLHWYQQKPGQQPKLLISLASHLESGVPARFTGSGSGTDFTLTIDPVEADDTATYYCQQTWNDPLTFGSGTKLEIK

— patent publication US20200102389A1 (Hoffmann-La Roche, published 2020)
